Laboratory results from publication PMC12395305 (ACS Central Science, 2025).

Biological target: T1, green fluorescent protein (Aequorea victoria, engineered EGFP-type …)
T1 construct: green fluorescent protein; pI 5.4; also called GFP; GFP-wt; source: produced by the authors; expression and purification in the Supplementary Methods
Test: SPR; αGFP nanobody variants and GFP; constants in Table S1; format and conditions not shown
Settings: both partners purified

B1: αGFP-S54C (VHH)
VHH: QVQLVESGGALVQPGGSLRLSCAASGFPVNRYSMRWYRQAPGKEREWVAGMSCAGDRSSYEDSVKGRFTISRDDARNTVYLQMNSLKPEDTAVYYCNVNVGFEYWGQGTQVTVSS
notes: as the chain of m1 (nanobody chain of PDB 3OGO) with S54C; In the functional rows it carries linker 3c-rho on C54 (PEABS αGFP-S54-3c-rho); also called cysteine mutant; αGFP-S54C nanobody; source: bacterial expression vector, expressed and purified
B1 was tested, and the “fold reduction of affinity against the wild type” value was 25 fold.
